Measured values as given in patent US7189832 (University of California, dated 2007).

Target: the molecule itself
Experiment: EGS crosslinking of recombinant protein, SDS-PAGE, immunoblot

Row | Protein | binding result
1 | recombinant ΔN-IKK-γ (134-419) (other, not shown: small tags and cut ends, also called N-terminal truncation) QMAEDKASVKAQVTSLLGELQESQSRLEAATKECQALEGRARAASEQARQLESEREALQQQHSVQVDQLRMQGQSVEAALRMERQAASEEKRKLAQLQVAYHQLFQEYDNHIKSSVVGSERKRGMQLEDLKQQLQQAEEALVAKQEVIDKLKEEAEQHKIVMETVPVLKAQADIYKADFQAERQAREKLAEKKELLQEQLEQLQREYSKLKASCQESARIEDMRKRHVEVSQAPLPPAPAYLSSPLALPSQRRSPPEEPPDFCCPKCQYQAPDMDTLQIHVMECIE | binds
2 | recombinant ΔC-IKK-γ (1-300) (other, not shown: small tags and cut ends, also called C-terminal truncation) MNRHLWKSQLCEMVQPSGGPAADQDVLGEESPLGKPAMLHLPSEQGAPETLQRCLEENQELRDAIRQSNQILRERCEELLHFQASQREEKEFLMCKFQEARKLVERLGLEKLDLKRQKEQALREVEHLKRCQQQMAEDKASVKAQVTSLLGELQESQSRLEAATKECQALEGRARAASEQARQLESEREALQQQHSVQVDQLRMQGQSVEAALRMERQAASEEKRKLAQLQVAYHQLFQEYDNHIKSSVVGSERKRGMQLEDLKQQLQQAEEALVAKQEVIDKLKEEAEQHKIVMETVPV | binds
